Measurements reported in IntAct's records for PubMed 31515488.

B1: Elongin-A2 (Homo sapiens), Q8IYF1 (parent)
chain: MAAGSTTLHAVEKLQVRLATKTEPKKLEKYLQKLSALPMTADILAETGIRKTVKRLRKHQHVGDFARDLAARWKKLVLVDRNTRPGPQDPEESASRQRFGEALQDQEKAWGFPENATAPRSPSHSPEHRRTARRTPPGQQRPHPRSHSREPRAERKCPRIAPADSGRYRASPTRTAPLRMPEGPEPAAPGKQPGRGHTHAAQGGPLLCPGCQGQPQGKAVVSHSKGHKSSRQEKRPLCAQGDWHSPTLIREKSCGACLREETPRMPSWASARDRQPSDFKTDKEGGQAGSGQRVPALEEAPDSHQKRPQHSHSNKKRPSLDGRDPGNGTHGLSPEEKEQLSNDRETQEGKPPTAHLDRTSVSSLSEVEEVDMAEEFEQPTLSCEKYLTYDQLRKQKKKTGKSATTALGDKQRKANESKGTRESWDSAKKLPPVQESQSERLQAAGADSAGPKTVPSHVFSELWDLSEAWMQANYDPLSDSDSMTSQAKPEALSSPKFREEAAFPGRRVNAKMPVYSGSRPACQLQVPTLRQQCAQVLRNNPDALSDVGEVPYWVLEPVLEGWRPDQLYRRKKDNHALVRETDELRRNHCFQDFKEEKPQENKTWREQYLRLPDAPEQRLRVMTTNIRSARGNNPNGREAKMICFKSVAKTPYDTSRRQEKSAGDADPENGEIKPASKPAGSSHTPSSQSSSGGGRDSSSSILRWLPEKRANPCLSSSNEHAAPAAKTRKQAAKKVAPLMAKAIRDYKRRFSRR
partner: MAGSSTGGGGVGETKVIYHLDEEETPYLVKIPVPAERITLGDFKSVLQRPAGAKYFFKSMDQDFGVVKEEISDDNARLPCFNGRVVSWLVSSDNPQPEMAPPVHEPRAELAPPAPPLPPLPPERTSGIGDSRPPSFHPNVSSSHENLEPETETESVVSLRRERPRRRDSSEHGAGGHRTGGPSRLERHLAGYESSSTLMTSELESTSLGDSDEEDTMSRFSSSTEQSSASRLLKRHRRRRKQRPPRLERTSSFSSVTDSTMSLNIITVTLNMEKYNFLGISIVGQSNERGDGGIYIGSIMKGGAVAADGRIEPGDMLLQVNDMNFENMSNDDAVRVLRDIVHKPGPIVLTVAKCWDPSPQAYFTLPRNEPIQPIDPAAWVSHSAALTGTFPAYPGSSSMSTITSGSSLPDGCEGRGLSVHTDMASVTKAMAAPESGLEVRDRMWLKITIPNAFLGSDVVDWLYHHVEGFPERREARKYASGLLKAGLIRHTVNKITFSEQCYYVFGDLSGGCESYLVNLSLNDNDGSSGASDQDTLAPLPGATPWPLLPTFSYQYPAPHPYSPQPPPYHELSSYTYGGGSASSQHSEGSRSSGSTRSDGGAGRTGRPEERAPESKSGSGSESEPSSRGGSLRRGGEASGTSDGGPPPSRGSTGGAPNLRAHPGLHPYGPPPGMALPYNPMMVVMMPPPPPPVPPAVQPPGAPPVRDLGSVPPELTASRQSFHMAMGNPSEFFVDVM
B2: Tuftelin-interacting protein 11 (Homo sapiens), Q9UBB9 (parent)
chain: MSLSHLYRDGEGRIDDDDDERENFEITDWDLQNEFNPNRQRHWQTKEEATYGVWAERDSDDERPSFGGKRARDYSAPVNFISAGLKKGAAEEAELEDSDDEEKPVKQDDFPKDFGPRKLKTGGNFKPSQKGFAGGTKSFMDFGSWERHTKGIGQKLLQKMGYVPGRGLGKNAQGIINPIEAKQRKGKGAVGAYGSERTTQSMQDFPVVDSEEEAEEEFQKELSQWRKDPSGSKKKPKYSYKTVEELKAKGRISKKLTAPQKELSQVKVIDMTGREQKVYYSYSQISHKHNVPDDGLPLQSQQLPQSGKEAKAPGFALPELEHNLQLLIDLTEQEIIQNDRQLQYERDMVVNLFHELEKMTEVLDHEERVISNLSKVLEMVEECERRMQPDCSNPLTLDECARIFETLQDKYYEEYRMSDRVDLAVAIVYPLMKEYFKEWDPLKDCTYGTEIISKWKSLLENDQLLSHGGQDLSADAFHRLIWEVWMPFVRNIVTQWQPRNCDPMVDFLDSWVHIIPVWILDNILDQLIFPKLQKEVENWNPLTDTVPIHSWIHPWLPLMQARLEPLYSPIRSKLSSALQKWHPSDSSAKLILQPWKDVFTPGSWEAFMVKNIVPKLGMCLGELVINPHQQHMDAFYWVIDWEGMISVSSLVGLLEKHFFPKWLQVLCSWLSNSPNYEEITKWYLGWKSMFSDQVLAHPSVKDKFNEALDIMNRAVSSNVGAYMQPGARENIAYLTHTERRKDFQYEAMQERREAENMAQRGIGVAASSVPMNFKDLIETKAEEHNIVFMPVIGKRHEGKQLYTFGRIVIYIDRGVVFVQGEKTWVPTSLQSLIDMAK
partner: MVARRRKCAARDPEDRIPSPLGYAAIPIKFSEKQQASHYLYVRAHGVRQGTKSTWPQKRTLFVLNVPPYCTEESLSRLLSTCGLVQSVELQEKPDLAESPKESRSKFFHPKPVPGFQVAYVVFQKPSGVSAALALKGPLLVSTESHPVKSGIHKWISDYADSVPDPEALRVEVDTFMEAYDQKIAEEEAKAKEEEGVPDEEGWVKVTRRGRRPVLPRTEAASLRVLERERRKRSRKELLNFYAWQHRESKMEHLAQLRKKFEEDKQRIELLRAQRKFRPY
B3: Plakophilin-2 (Homo sapiens), Q99959 (parent)
chain: MAAPGAPAEYGYIRTVLGQQILGQLDSSSLALPSEAKLKLAGSSGRGGQTVKSLRIQEQVQQTLARKGRSSVGNGNLHRTSSVPEYVYNLHLVENDFVGGRSPVPKTYDMLKAGTTATYEGRWGRGTAQYSSQKSVEERSLRHPLRRLEISPDSSPERAHYTHSDYQYSQRSQAGHTLHHQESRRAALLVPPRYARSEIVGVSRAGTTSRQRHFDTYHRQYQHGSVSDTVFDSIPANPALLTYPRPGTSRSMGNLLEKENYLTAGLTVGQVRPLVPLQPVTQNRASRSSWHQSSFHSTRTLREAGPSVAVDSSGRRAHLTVGQAAAGGSGNLLTERSTFTDSQLGNADMEMTLERAVSMLEADHMLPSRISAAATFIQHECFQKSEARKRVNQLRGILKLLQLLKVQNEDVQRAVCGALRNLVFEDNDNKLEVAELNGVPRLLQVLKQTRDLETKKQITDHTVNLRSRNGWPGAVAHACNPSTLGGQGGRITRSGVRDQPDQHGLLWNLSSNDKLKNLMITEALLTLTENIIIPFSGWPEGDYPKANGLLDFDIFYNVTGCLRNMSSAGADGRKAMRRCDGLIDSLVHYVRGTIADYQPDDKATENCVCILHNLSYQLEAELPEKYSQNIYIQNRNIQTDNNKSIGCFGSRSRKVKEQYQDVPMPEEKSNPKGVEWLWHSIVIRMYLSLIAKSVRNYTQEASLGALQNLTAGSGPMPTSVAQTVVQKESGLQHTRKMLHVGDPSVKKTAISLLRNLSRNLSLQNEIAKETLPDLVSIIPDTVPSTDLLIETTASACYTLNNIIQNSYQNARDLLNTGGIQKIMAISAGDAYASNKASKAASVLLYSLWAHTELHHAYKKAQFKKTDFVNSRTAKAYHSLKD
B4: Four and a half LIM domains protein 5 (Homo sapiens), Q5TD97 (parent)
chain: MTTAHFYCQYCTASLLGKKYVLKDDSPYCVTCYDRVFSNYCEECKKPIESDSKDLCYKDRHWHEGCFKCTKCNHSLVEKPFAAKDERLLCTECYSNECSSKCFHCKRTIMPGSRKMEFKGNYWHETCFVCENCRQPIGTKPLISKESGNYCVPCFEKEFAHYCNFCKKVITSGGITFCDQLWHKECFLCSGCRKDLCEEQFMSRDDYPFCVDCYNHLYANKCVACSKPISGLTGAKFICFQDSQWHSECFNCGKCSVSLVGKGFLTQNKEIFCQKCGSGMDTDI
partner: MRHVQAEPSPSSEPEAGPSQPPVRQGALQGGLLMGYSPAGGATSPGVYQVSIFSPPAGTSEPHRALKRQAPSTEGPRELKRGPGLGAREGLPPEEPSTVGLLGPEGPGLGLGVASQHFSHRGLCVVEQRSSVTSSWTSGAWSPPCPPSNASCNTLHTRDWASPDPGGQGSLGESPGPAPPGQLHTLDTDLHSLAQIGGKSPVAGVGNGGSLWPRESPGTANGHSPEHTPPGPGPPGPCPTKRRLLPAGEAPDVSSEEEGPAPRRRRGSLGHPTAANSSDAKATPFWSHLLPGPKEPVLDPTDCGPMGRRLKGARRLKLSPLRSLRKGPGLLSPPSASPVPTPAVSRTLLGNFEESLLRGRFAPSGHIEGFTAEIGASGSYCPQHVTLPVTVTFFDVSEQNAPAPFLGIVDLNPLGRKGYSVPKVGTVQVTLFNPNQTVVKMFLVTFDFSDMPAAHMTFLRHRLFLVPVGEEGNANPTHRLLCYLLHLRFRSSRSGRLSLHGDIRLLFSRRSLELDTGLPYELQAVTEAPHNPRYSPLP
B5: Isoform 1 of 1-aminocyclopropane-1-carboxylate synthase-like protein 1 (Homo sapiens), Q96QU6-1 (parent)
chain: MFTLPQKDFRAPTTCLGPTCMQDLGSSHGEDLEGECSRKLDQKLPELRGVGDPAMISSDTSYLSSRGRMIKWFWDSAEEGYRTYHMDEYDEDKNPSGIINLGTSENKLCFDLLSWRLSQRDMQRVEPSLLQYADWRGHLFLREEVAKFLSFYCKSPVPLRPENVVVLNGGASLFSALATVLCEAGEAFLIPTPYYGAITQHVCLYGNIRLAYVYLDSEVTGLDTRPFQLTVEKLEMALREAHSEGVKVKGLILISPQNPLGDVYSPEELQEYLVFAKRHRLHVIVDEVYMLSVFEKSVGYRSVLSLERLPDPQRTHVMWATSKDFGMSGLRFGTLYTENQDVATAVASLCRYHGLSGLVQYQMAQLLRDRDWINQVYLPENHARLKAAHTYVSEELRALGIPFLSRGAGFFIWVDLRKYLPKGTFEEEMLLWRRFLDNKVLLSFGKAFECKEPGWFRFVFSDQVHRLCLGMQRVQQVLAGKSQVAEDPRPSQSQEPSDQRR
partner: B5 chain
B6: Grancalcin (Homo sapiens), P28676 (parent)
chain: MAYPGYGGGFGNFSIQVPGMQMGQPVPETGPAILLDGYSGPAYSDTYSSAGDSVYTYFSAVAGQDGEVDAEELQRCLTQSGINGTYSPFSLETCRIMIAMLDRDHTGKMGFNAFKELWAALNAWKENFMTVDQDGSGTVEHHELRQAIGLMGYRLSPQTLTTIVKRYSKNGRIFFDDYVACCVKLRALTDFFRKRDHLQQGSANFIYDDFLQGTMAI
partner: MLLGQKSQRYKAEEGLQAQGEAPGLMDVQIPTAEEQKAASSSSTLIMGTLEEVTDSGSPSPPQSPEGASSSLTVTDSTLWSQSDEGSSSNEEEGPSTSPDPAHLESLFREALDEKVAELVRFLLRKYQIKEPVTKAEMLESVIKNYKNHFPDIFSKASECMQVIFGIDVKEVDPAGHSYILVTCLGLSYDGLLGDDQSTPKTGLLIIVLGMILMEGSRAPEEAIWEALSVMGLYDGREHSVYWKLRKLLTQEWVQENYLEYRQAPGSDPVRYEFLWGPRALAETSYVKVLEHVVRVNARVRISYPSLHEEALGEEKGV

Variants of: B1
Details: with dvl2_human DVL2, O14641

| Variant | effect of a mutation on the interaction |
| --- | --- |
| G505R | with no effect |

Variants of: B2
Details: with rrp7a_human RRP7A

| Variant | effect of a mutation on the interaction |
| --- | --- |
| M140V | with no effect |

Variants of: B3
Details: with mtus2_human MTUS2, Q5JR59
Chain of mtus2_human MTUS2, Q5JR59 (Q5JR59 whole entry): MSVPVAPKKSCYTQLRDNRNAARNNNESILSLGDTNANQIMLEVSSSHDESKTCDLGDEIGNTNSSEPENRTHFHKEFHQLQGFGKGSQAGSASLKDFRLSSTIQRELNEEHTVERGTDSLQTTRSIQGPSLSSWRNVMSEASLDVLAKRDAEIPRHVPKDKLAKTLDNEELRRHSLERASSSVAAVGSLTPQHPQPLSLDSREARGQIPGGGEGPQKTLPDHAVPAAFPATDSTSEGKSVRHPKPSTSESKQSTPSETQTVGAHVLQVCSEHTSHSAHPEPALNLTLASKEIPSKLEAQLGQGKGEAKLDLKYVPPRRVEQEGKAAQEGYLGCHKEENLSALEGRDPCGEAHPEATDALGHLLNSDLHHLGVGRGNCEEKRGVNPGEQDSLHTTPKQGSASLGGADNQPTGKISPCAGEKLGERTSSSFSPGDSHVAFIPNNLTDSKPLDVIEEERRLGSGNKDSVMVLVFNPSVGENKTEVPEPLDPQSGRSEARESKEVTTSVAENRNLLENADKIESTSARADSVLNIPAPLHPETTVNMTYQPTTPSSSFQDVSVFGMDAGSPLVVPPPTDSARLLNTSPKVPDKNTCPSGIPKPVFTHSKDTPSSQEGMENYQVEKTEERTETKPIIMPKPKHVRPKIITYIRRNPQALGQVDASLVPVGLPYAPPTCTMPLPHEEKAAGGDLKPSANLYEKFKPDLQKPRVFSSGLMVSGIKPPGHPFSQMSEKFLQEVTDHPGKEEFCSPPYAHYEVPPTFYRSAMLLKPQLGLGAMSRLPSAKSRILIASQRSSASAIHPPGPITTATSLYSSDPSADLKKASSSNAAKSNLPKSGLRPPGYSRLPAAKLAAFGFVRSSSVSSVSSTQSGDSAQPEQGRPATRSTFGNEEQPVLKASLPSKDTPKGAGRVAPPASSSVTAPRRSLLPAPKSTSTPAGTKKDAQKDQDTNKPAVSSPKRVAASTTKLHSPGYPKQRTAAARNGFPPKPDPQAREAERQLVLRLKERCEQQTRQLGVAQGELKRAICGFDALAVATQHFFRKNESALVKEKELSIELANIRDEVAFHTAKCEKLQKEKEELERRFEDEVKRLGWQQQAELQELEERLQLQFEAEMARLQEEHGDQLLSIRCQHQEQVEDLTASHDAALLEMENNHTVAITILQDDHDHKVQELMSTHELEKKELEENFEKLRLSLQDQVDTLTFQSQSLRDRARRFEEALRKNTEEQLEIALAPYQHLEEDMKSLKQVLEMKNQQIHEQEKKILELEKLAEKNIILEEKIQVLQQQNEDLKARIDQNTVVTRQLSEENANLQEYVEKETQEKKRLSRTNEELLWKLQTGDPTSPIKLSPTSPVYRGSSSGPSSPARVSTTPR

| Variant | effect of a mutation on the interaction |
| --- | --- |
| L366P | with no effect |
| A264V | with no effect |
| E58D | with no effect |

Variants of: B4
Details: with atosb_human ATOSB

| Variant | effect of a mutation on the interaction |
| --- | --- |
| R204G | with no effect |
| M202L | with no effect |
| D24Y | with no effect |
| R60W | with no effect |

Variants of: B5
Details: with 1a1l1_human ACCS

| Variant | effect of a mutation on the interaction |
| --- | --- |
| S393L | disrupting interaction strength |

Variants of: B6
Details: with maga8_human MAGEA8, P43361

| Variant | effect of a mutation on the interaction |
| --- | --- |
| S80A | disrupting interaction strength |
